Target: p65 (UniProt Q04206)
Assay: co-immunoprecipitation, immunoblot
Conditions: reference: wild-type RB; sites S249,T252

RB (retinoblastoma protein) (from UniProt P06400) RB S249A/T252A
binding against the reference: weaker
